Laboratory results taken from patent US20220041658A1 (PROTAGONIST THERAPEUTICS, published 2022).
Starred links: 1 amine or outer side, 2 acyl side, 3 side chain; linkers in the order of their positions; H or OH if unused. Positions of bridges follow the written chain, without caps; N, C: chain ends. Non-standard residues stand in square brackets, D forms with d. Trp(7-Et) = 7-ethyl-tryptophan, CCc1cccc2c(C[C@H](N[*:1])C(=O)[*:2])c[nH]c12; Trp(7-Me) = Cc1cccc2c(C[C@H](N)C(=O)O)c[nH]c12; 2Nal = N[C@@H](Cc1ccc2ccccc2c1)C(=O)O; AEF = NCCOc1ccc(C[C@H](N)C(=O)O)cc1; Cit = NC(=O)NCCC[C@H](N)C(=O)O; αMeL = CC(C)C[C@](C)(N)C(=O)O; Pen = CC(C)(S)[C@H](N)C(=O)O; αMeK = C[C@](N)(CCCCN)C(=O)O; Aib = CC(C)(N)C(=O)O; βAla = NCCC(=O)O

T1: interleukin-23 receptor (IL-23R) (human, UniProt Q5VWK5 24-629)
T1 sequence (looked up): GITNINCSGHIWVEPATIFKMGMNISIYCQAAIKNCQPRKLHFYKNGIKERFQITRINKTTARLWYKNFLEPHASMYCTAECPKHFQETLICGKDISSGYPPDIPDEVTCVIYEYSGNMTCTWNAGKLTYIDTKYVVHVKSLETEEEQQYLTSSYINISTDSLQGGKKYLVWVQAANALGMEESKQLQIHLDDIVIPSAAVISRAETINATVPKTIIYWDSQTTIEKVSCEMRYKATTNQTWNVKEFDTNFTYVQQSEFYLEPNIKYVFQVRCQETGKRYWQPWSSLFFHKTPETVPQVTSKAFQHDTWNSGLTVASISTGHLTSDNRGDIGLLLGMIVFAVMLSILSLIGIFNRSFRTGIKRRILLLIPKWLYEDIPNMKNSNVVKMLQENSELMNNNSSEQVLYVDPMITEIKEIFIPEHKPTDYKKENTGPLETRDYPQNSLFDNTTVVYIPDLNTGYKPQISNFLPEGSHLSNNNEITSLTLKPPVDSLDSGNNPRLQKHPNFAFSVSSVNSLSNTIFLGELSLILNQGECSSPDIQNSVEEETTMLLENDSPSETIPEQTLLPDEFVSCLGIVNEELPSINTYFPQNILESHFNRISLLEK

B1: Peptide of SEQ ID NO: 251 (peptide)
peptide: XNTXKXXXXKNV
modifications: Ac-[Pen]-NT-[W(7-Me)]-[Lys(Ac)]-[Pen]-Phe[4-(2-aminoethoxy)]-[2-Nal]-[a-MeLys]-[Lys(Ac)]-N-[(D)Val]-NH2; Pen-Pen disulfide
B2: Peptide of SEQ ID NO: 235 (peptide)
peptide: Ac-[Pen]NT[Trp(7-Me)][αMeL][Pen][AEF][2Nal][αMeK]K(Ac)N[βAla]-NH2
modifications: disulfide 1-6
B3: Peptide of SEQ ID NO: 264 (peptide)
peptide: Ac-[Pen]NT[Trp(7-Me)][Cit][Pen][AEF][2Nal][αMeK]K(Ac)N[Aib]-NH2
modifications: disulfide 1-6
SMILES: CC(=O)NCCCC[C@H](NC(=O)[C@](C)(CCCCN)NC(=O)[C@H](Cc1ccc2ccccc2c1)NC(=O)[C@H](Cc1ccc(OCCN)cc1)NC(=O)[C@H]1NC(=O)[C@H](CCCNC(N)=O)NC(=O)[C@H](Cc2c[nH]c3c(C)cccc23)NC(=O)[C@H]([C@@H](C)O)NC(=O)[C@H](CC(N)=O)NC(=O)[C@@H](NC(C)=O)C(C)(C)SSC1(C)C)C(=O)N[C@@H](CC(N)=O)C(=O)NC(C)(C)C(N)=O
B4: Peptide of SEQ ID NO: 252 (peptide)
peptide: XNTXKXXXXKNK
modifications: Ac-[Pen]-NT-[W(7-Me)]-[Lys(Ac)]-[Pen]-Phe[4-(2-aminoethoxy)]-[2-Nal]-[a-MeLys]-[Lys(Ac)]-N-[(D)Lys]-NH2; Pen-Pen disulfide
B5: Peptide of SEQ ID NO: 216 (peptide)
peptide: XNTXQXXXXKIX
modifications: Ac-[Pen]-NT-[W(7-Me)]-Q-[Pen]-Phe[4-(2-aminoethoxy)]-[2-Nal]-[a-MeLeu]-[Lys(Ac)]-I-[bA]-NH2; Pen-Pen disulfide
B6: Peptide of SEQ ID NO: 217 (peptide)
peptide: XNTXQXXXXKTX
modifications: Ac-[Pen]-NT-[W(7-Me)]-Q-[Pen]-Phe[4-(2-aminoethoxy)]-[2-Nal]-[a-MeLeu]-[Lys(Ac)]-T-[bA]-NH2; Pen-Pen disulfide
B7: Peptide of SEQ ID NO: 236 (peptide)
peptide: XNTXQXXXXXNX
modifications: Ac-[Pen]-NT-[W(7-Me)]-Q-[Pen]-Phe[4-(2-aminoethoxy)]-[2-Nal]-[a-MeLys]-[Aib]-N-[bA]-NH2; Pen-Pen disulfide
B8: Peptide of SEQ ID NO: 215 (peptide)
peptide: XNTXQXXXXKHX
modifications: Ac-[Pen]-NT-[W(7-Me)]-Q-[Pen]-Phe[4-(2-aminoethoxy)]-[2-Nal]-[a-MeLeu]-[Lys(Ac)]-[(D)His]-[bA]-NH2; Pen-Pen disulfide
B9: Peptide of SEQ ID NO: 221 (peptide)
peptide: XNTXQXXXXKSX
modifications: Ac-[Pen]-NT-[W(7-Me)]-Q-[Pen]-Phe[4-(2-aminoethoxy)]-[2-Nal]-[a-MeLeu]-[Lys(Ac)]-S-[bA]-NH2; Pen-Pen disulfide
B10: Peptide of SEQ ID NO: 261 (peptide)
peptide: Ac-[Pen]NT[Trp(7-Me)][Cit][Pen][AEF][2Nal][αMeK]K(Ac)N[dS]-NH2
modifications: disulfide 1-6
SMILES: CC(=O)NCCCC[C@H](NC(=O)[C@](C)(CCCCN)NC(=O)[C@H](Cc1ccc2ccccc2c1)NC(=O)[C@H](Cc1ccc(OCCN)cc1)NC(=O)[C@H]1NC(=O)[C@H](CCCNC(N)=O)NC(=O)[C@H](Cc2c[nH]c3c(C)cccc23)NC(=O)[C@H]([C@@H](C)O)NC(=O)[C@H](CC(N)=O)NC(=O)[C@@H](NC(C)=O)C(C)(C)SSC1(C)C)C(=O)N[C@@H](CC(N)=O)C(=O)N[C@H](CO)C(N)=O
B11: Peptide of SEQ ID NO: 227 (peptide)
peptide: Ac-[Pen]NT[Trp(7-Me)][Cit][Pen][AEF][2Nal][αMeL]K(Ac)N[βAla]-NH2
modifications: disulfide 1-6
B12: Peptide of SEQ ID NO: 290 (peptide)
peptide: Ac-[Pen]NT[Trp(7-Me)]K(Ac)[Pen]H[2Nal][αMeK]K(Ac)N[dL]-NH2
modifications: disulfide 1-6 (inferred)
B13: Peptide of SEQ ID NO: 224 (peptide)
peptide: XNTXQXXXXKXX
modifications: Ac-[Pen]-NT-[W(7-Me)]-Q-[Pen]-Phe[4-(2-aminoethoxy)]-[2-Nal]-[a-MeLeu]-[Lys(Ac)]-[Sarc]-[bA]-NH2; Pen-Pen disulfide
B14: Peptide of SEQ ID NO: 284 (peptide)
peptide: Ac-[Pen]NT[Trp(7-Et)]K(Ac)[Pen][AEF][2Nal][αMeK]K(Ac)N[dL]-NH2
modifications: disulfide 1-6
SMILES: CCc1cccc2c(C[C@@H]3NC(=O)[C@H]([C@@H](C)O)NC(=O)[C@H](CC(N)=O)NC(=O)[C@@H](NC(C)=O)C(C)(C)SSC(C)(C)[C@@H](C(=O)N[C@@H](Cc4ccc(OCCN)cc4)C(=O)N[C@@H](Cc4ccc5ccccc5c4)C(=O)N[C@@](C)(CCCCN)C(=O)N[C@@H](CCCCNC(C)=O)C(=O)N[C@@H](CC(N)=O)C(=O)N[C@H](CC(C)C)C(N)=O)NC(=O)[C@H](CCCCNC(C)=O)NC3=O)c[nH]c12
B15: Peptide of SEQ ID NO: 258 (peptide)
peptide: XNTXKXXXXKNF
modifications: Ac-[Pen]-NT-[W(7-Me)]-[Lys(Ac)]-[Pen]-Phe[4-(2-aminoethoxy)]-[2-Nal]-[a-MeLys]-[Lys(Ac)]-N-[(D)Phe]-NH2; Pen-Pen disulfide
B16: Peptide of SEQ ID NO: 209 (peptide)
peptide: XNTXQXXXXKAX
modifications: Ac-[Pen]-NT-[W(7-Me)]-Q-[Pen]-Phe[4-(2-aminoethoxy)]-[2-Nal]-[a-MeLeu]-[Lys(Ac)]-[(D)Ala]-[bA]-NH2; Pen-Pen disulfide

Experiments:
[1] = target: T1, interleukin-23 receptor (IL-23R); test: cell-based or functional assay
[2] = target: T1, interleukin-23 receptor (IL-23R); test: cell-based or functional assay; remark: listed apart in the source

Binder | NK Cell Assay IC50 [1] [nM] | pStat3 HTRF IC50 [2] [nM]
B1 | 8.19 | 0.986
B2 | 10.2 | 3.21
B3 | 5.15 | 0.596
B4 | 3.32 | 0.338
B5 | > 500 | 13.5
B6 | 13.3 | 1.61
B7 | 5.82 | 5.21
B8 | 20 | 4.94
B9 | 5.5 | 1.27
B10 | 4.87 | 0.522
B11 | 2.95 | 0.702
B12 | 11 | 2.45
B13 | > 500 | 124
B14 | 3.16 | 0.34
B15 | 9.7 | 0.92
B16 | 30.1 | 9.84
